Assay results: patent US20020022718A1, “Genes identified as required for proliferation of E. coli” (priority 1999, published 2002)

Experiments:
Assay type in all cases: cell-based
Set-up in all cases: key: +: a positive in Table V below means that at least 10 fold more cells were required to observe a colony on the induced plate than on the non-induced plate; −: If there was no effect of antisense RNA expression in a microorganism, the clone is minus in Table V below
Conditions in all cases: antisense RNA expression induced with IPTG, serial dilution plating
Enterobacter cloacae = assay: Growth inhibition by induced E. coli antisense RNA in Enterobacter cloacae
Description: (§1) To study the effects of transcriptional induction in liquid medium, growth curves were carried out by back diluting cultures 1:200 into fresh media with or without 1 mM IPTG and measuring the OD450 every 30 minutes (min). To study the effects of transcriptional induction on solid medium, 10^2, 10^3, 10^4, 10^5, 10^6, 10^7 and 10^8 fold dilutions of overnight cultures were prepared. Aliquots of from 0.5 to 3 μl of these dilutions were spotted on selective agar plates with or without 1 mM IPTG. After overnight incubation, the plates were compared to assess the sensitivity of the clones to IPTG.
(§2) Molecule No. EcXA190, encoding a portion of the b3052 gene of Escherichia coli, was either transformed directly into Enterobacter cloacae, Salmonella typhimurium and/or Klebsiella pneumoniae or subcloned into an expression vector functional in these species and the subclones transformed into these organisms. Suitable expression vectors are well known in the art. […] After growth in liquid culture, cells were plated at various serial dilutions and a score determined by calculating the log difference in growth for INDUCED vs. UNINDUCED antisense RNA expression as determined by the maximum 10 fold dilution at which a colony was observed. […]

Salmonella typhimurium = assay: Growth inhibition by induced E. coli antisense RNA in Salmonella typhimurium
Description: as §1, §2

Klebsiella pneumoniae = assay: Growth inhibition by induced E. coli antisense RNA in Klebsiella pneumoniae
In short: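 An E. coli antisense fragment (b3052 portion), or other E. coli-inhibitory antisense clones, was expressed in each species on IPTG induction (1 mM). Serial 10-fold dilutions were spotted on selective agar with or without IPTG overnight. The score is the log difference in maximal colony-forming dilution, induced vs uninduced (0 = no effect; positive = at least 10-fold).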

B1: EcXA172: antisense clone insert to E. coli b2345 (nucleic acid, listed as Escherichia coli)
antisense: AAAACTCACCTTTTTTGTTGTTATCCCTCAATTACCACAAGTAAAAGGAGATAAACCGACAATGACCTAGACGTAATTATGTAAAAATACTGATGTTCGTCACTGACTATTTCCGATATTCAGCTGTTGAAAAATCAAAAAACTGGAAAAATAATTTTAAATATCAT
−: Sensitivity of E. cloacae to antisense nucleic acid (growth inhibition, induced vs. uninduced) (Enterobacter cloacae) | Sensitivity of S. typhimurium to antisense nucleic acid (growth inhibition, induced vs. uninduced) (Salmonella typhimurium) | Sensitivity of K. pneumoniae to antisense nucleic acid (growth inhibition, induced vs. uninduced) (Klebsiella pneumoniae)
